Reference: patent US10716826B2, “Compositions for overcoming anti-cancer drug-resistance or compositions for anti-cancer activity employing CAGE-derived peptides” (L-Base Co., Ltd., priority 2015, dated 2020)
Entries after “also recorded” stand apart in the source; their conditions may differ.

Legend:
[1] = target: reassociated CAGE protein (Homo sapiens, UniProt Q86TM3); test: in vitro kinase assay: phosphorylation of GSK3β Ser9 peptide by reassociated CAGE protein; assay type: biochemical; settings: RTTSFAE peptide as substrate
reassociated CAGE protein, sequence (Q86TM3 whole entry): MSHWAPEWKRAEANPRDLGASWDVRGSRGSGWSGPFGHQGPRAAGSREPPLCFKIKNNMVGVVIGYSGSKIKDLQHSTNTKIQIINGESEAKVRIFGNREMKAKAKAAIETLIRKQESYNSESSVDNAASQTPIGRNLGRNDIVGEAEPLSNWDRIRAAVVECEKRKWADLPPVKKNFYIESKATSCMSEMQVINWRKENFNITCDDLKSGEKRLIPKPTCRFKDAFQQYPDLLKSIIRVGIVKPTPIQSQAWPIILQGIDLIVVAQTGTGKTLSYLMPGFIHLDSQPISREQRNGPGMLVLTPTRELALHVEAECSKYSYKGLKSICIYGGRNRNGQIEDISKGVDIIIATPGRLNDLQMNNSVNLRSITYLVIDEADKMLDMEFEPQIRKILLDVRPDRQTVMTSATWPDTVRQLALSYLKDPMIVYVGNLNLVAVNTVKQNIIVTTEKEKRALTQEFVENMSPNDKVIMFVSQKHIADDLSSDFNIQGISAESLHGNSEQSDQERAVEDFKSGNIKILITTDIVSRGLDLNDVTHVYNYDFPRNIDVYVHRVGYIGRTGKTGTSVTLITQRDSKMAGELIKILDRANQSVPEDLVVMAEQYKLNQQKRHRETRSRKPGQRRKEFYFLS
Procedure: A GSK3β-described peptide RTTSFAE including GSK3β Ser9 residues was prepared for a temperament (the left panel of FIG. 3A) and phosphorylation of the GSK3β Ser9 residues by a reassociated CAGE protein was confirmed through an in vitro kinase assay by using the RTTSFAE peptide as the temperament (the left panel of FIG. 4B).

[2] = system: Malme3M^R, SNU38M^R cell strains; test: apoptosis against an anticancer drug (FAK and PARP cleavage, Western blot); assay type: cell-based; settings: melanoma and liver cancer cell strains
[3] = system: Malme3M^R, SNU38M^R, AGS^R cell strains; test: MTT assay of anticancer drug resistance; assay type: cell-based; settings: celastrol-resistance cell strains
Procedure: To confirm anticancer activity of a GTGKT-based oligopeptide, the MIT assay and the western blot according to a known method was performed using an immunodeficiency mouse. Then, it could be seen how the GKCKT-based oligopeptide affected tumor generation.
After transfecting a GTGKT peptide into melanoma, liver-cancer, and gastric-cancer cell strains (Malme3M^R, SNU38M^R, AGS^R) by concentration, anticancer drug resistance was inspected through the MTT assay.

[4] = system: tumor from Malme3MR, SNU38R cell strains; test: tumor generation in immunodeficiency mouse, peptide injected into tail vein; assay type: in vivo; settings: 5 times in total every 3 days for 2 weeks
Procedure: If a tumor grew up to a size enough to be measured, a digital gauge was used to a size of the tumor in a uniform interval and the tumor size was calculated by a known equation (the widest length [the shortest length]^2×0.5). After inducing a tumor in the same manner, taxol was injected into a vein of the mouse's tail for inspection to tumor generation and anticancer drug resistance.
To inspect an affection of GKGKT peptide to tumor generation, after injecting high-CAGE melanoma and liver-cancer cell strains (Malme3MR, SNU38R) into the side abdomen of an immunodeficiency mouse by a known method and then inducing a tumor, the GTGKT peptide was injected into a vein of the mouse's tail 5 times in total every 3 days for 2 weeks and a size variation of the tumor was examined. As a result, it could be seen from FIG. 8A that the GTGKT peptide reduced a size of the tumor due to the cancer cell strains.

CAGE = target: T1, CAGE (Homo sapiens, UniProt Q86TM3); test: binding of peptide to CAGE in anticancer drug-resistance cell strains
T1 construct: endogenous in cells; host or cells: anticancer drug-resistance cell strains (Malme3M^R, SNU387^R)
T1 sequence (Q86TM3 whole entry): as above

CAGE-GSK3β inter-binding [5] = target: T2, CAGE-GSK3β inter-binding (Homo sapiens, UniProt Q86TM3); test: Western blot and immunoprecipitation of tumor tissue after the mouse experiment; assay type: in vivo; set-up: from tissue; host or cells: xenograft tumour tissue from Malme3M^R / SNU387^R cells in immunodeficiency mouse
T2 sequence (Q86TM3 whole entry): as above
Source text: After finishing the experiment, a protein was collected from the tumor tissue through a known method, and then activity of protein expression and an inter-binding state were conformed through the Western blot and the immunoprecipitation.

CAGE-GSK3β inter-binding [6] = target: T2, CAGE-GSK3β inter-binding; test: Western blot and immunoprecipitation in taxol-resistance melanoma cell strain; assay type: cell-based; set-up: endogenous in cells; host or cells: Malme3M^R-Taxol (A2); Malme3M^R, SNU387^R (printed SNU3SM^R/SNU38^R), AGS^R (A3); settings: Malme3M^R-Taxol; for CAGE-GSK3β inter-binding: immunoprecipitation
Procedure: (§1) To confirm an affection of CAGE-derived oligopeptide to the interbinding and GSK3β Ser9 phosphorylation of a CAGE, a GTGKT (Sequence No.1) peptide and a specific-residue deleted and mutated peptide based on the GTGKT peptide were prepared and, after collecting proteins by a known method after transfection into respective cell stains, the Western blot and the immunoprecipitation were preformed to inspect an anticancer drug-resistance induction mechanism of the CAGE. GTGKT includes ATP binding sites of CAGE (the right panel of FIG. 3A).
To examine residues necessary for anticancer activity of a GTGKT peptide, after preparing a peptide for which the 273′rd Thr residue is deleted (GTGK) or substituted (GTGKA, sequence No. 2) with Ala in CAFE, and preparing a peptide for which the 272′nd […] residue is substituted (GTGRT) with Arg, the same manner was performed.

CAGE-GSK3β inter-binding [7] = target: T2, CAGE-GSK3β inter-binding; test: Western blot and immunoprecipitation in celastrol-resistance cell strains; assay type: cell-based; set-up: endogenous in cells; host or cells: Malme3M^R-Taxol (A2); Malme3M^R, SNU387^R (printed SNU3SM^R/SNU38^R), AGS^R (A3); settings: for expression level of Cyclin D1 / inter-binding between CAGE and GSK3β proteins: celastrol-resistance cell strains (melanoma, liver cancer, gastric cancer)
Procedure: as §1

| Substance | phosphorylation of GSK3β Ser9 residues due to the reassociated CAGE protein [1] | phosphorylation of GSK3β Ser9 residues due to the reassociated CAGE protein ([1]; listed as GTCKT) | apoptosis against an anticancer drug [2] | anticancer drug resistance [3] | size of the tumor [4] | binding to CAGE (CAGE) | expression of MDR1 in tumor tissue (CAGE-GSK3β inter-binding [5]; Western blot) | phosphorylation state of GSK3β Ser9 in tumor tissue (CAGE-GSK3β inter-binding [5]; Western blot) | protein expression of Cyclin D1 in tumor tissue (CAGE-GSK3β inter-binding [5]; Western blot) | inter-binding between CAGE and GSK3β proteins in tumor tissue (CAGE-GSK3β inter-binding [5]; immunoprecipitation) | phosphorylation of GSK3β Ser9 residues (CAGE-GSK3β inter-binding [6]; Western blot) | protein accumulation / expression level of Cyclin D1 (CAGE-GSK3β inter-binding [6]; Western blot) | CAGE-GSK3β inter-binding (CAGE-GSK3β inter-binding [6]) | phosphorylation state of GSK3β Ser9 (CAGE-GSK3β inter-binding [7]; Malme3M^R, SNU38^R treated with peptide) | expression level of Cyclin D1 (CAGE-GSK3β inter-binding [7]) | inter-binding between CAGE and GSK3β proteins (CAGE-GSK3β inter-binding [7]) |
| --- | --- | --- | --- | --- | --- | --- | --- | --- | --- | --- | --- | --- | --- | --- | --- | --- |
| GTGKT (CAGE-derived peptide) | suppressed in phosphorylation | suppressed | induced apoptosis | suppressed | reduced | bound specifically | reduced | dephosphorylation | decrease | suppressed | suppress | suppress | hindered | suppressed dephosphorylation | control an expression level of Cyclin D1; also recorded: suppressed | suppress; also recorded: hindered |
| GTGKA (CAGE-derived peptide) [GTGKT peptide in which the 273rd Thr residue is substituted with Ala] | – | – | induced cell apoptosis | – | – | – | – | – | – | – | – | control an expression level of Cyclin D1 | suppressed | – | control an expression level of Cyclin D1 | suppress |
